This passage reports Kd results from publication PMC7527728, “CPSF6-Dependent Targeting of Speckle-Associated Domains Distinguishes Primate from Nonprimate Lentiviral Integration” (mBio, 2020).

In the experiment the target is CPSF6_(276–290/F284A) peptide (human). The experiment can be described thus: fluorescence polarisation; 150 nM FITC-Ahx-labelled peptide mixed with increasing capsid NTD protein (2 μM to 2 mM) in 50 mM Tris-HCl pH 8.0, 50 mM NaCl, 384-well plates; one-site specific binding model; the EIAV constants are called apparent.

For “HIV-1 capsid N-terminal domain (NTD) protein (domain or fragment)”, the Kd is over 6 mM.

For “MLV capsid N-terminal domain (NTD) protein (domain or fragment)”, the Kd is over 8 mM.
